This note sets out measurements from patent US20260092111A1 (MOR RESEARCH APPLICATIONS, published 2026).

Several values for one entry are separate records, joined by “and”; a condition that tells them apart may be missing. Equal values may be shown once.

Assay [1] concerns the target T1, extracellular domain (ECD) of human TREM2 (human, UniProt Q9NZC2 19-174).
T1 construct: also called Human TREM2-ECD; human TREM2-extracellular domain (ECD)
T1 sequence: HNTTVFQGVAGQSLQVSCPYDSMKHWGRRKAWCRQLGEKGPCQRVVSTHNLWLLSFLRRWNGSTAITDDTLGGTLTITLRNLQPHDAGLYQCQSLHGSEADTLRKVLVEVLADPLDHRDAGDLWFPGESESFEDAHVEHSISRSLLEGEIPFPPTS
As to the kind of experiment: SPR (Biacore). The source says:
(§1) A Surface Plasmon Resonance (Biacore) assay was used to assess the binding of humanized CGX101 (hCGX101), an IgG4 antibody, to the extracellular domain of human TREM2 and to a protein containing the extracellular domain of mouse TREM2 fused to Fc.
On the technique in general: Surface plasmon resonance follows binding to a sensor surface in real time, without labels.

For assay [2], the target named is T2, protein containing the extracellular domain of mouse TREM2 fused to Fc (mouse, UniProt Q99NH8 19-171).
T2 construct: extracellular domain; also called Mouse TREM2-Fc; not shown: Fc
T2 sequence (looked up): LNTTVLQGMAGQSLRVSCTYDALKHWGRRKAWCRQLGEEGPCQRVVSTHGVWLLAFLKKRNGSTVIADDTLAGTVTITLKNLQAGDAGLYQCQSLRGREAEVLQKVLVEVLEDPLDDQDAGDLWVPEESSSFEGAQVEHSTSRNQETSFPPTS
Kind of assay: SPR (Biacore).
Description: as §1

B1: humanized CGX101 (hCGX101), an IgG4 antibody (antibody, V domains shown)
VH: EVQLVQSGAEVKKPGESLKISCKGSGYTFTDYNIHWVRQMPGKGLEWMGYIYPKNGGTGYTQKFKSQVTISVDNSISTAYLQWSSLKASDTAMYYCARRTARASWFAFWGQGTLVTVSS
VL: DIVMTQSPATLSVSPGERATLSCKSSQSLLYSSNQKNYLAWYQQKPGQAPRVLIYWASTRESGIPARFSGSGSGTEFTLTISSLQSEDFAVYYCQQYYNYPFTFGQGTKLEIK
notes: also called hIgG4; huIgG4
In the case of B1, in assay [1], the Kd was 5.74 nM and 5.73 nM; the koff stood at 0.000715 s⁻¹; the kon was determined as 125000 M⁻¹ s⁻¹. Besides, in assay [2], the Kd came to 18.6 nM, the koff worked out at 0.00106 s⁻¹ and the kon worked out at 57000 M⁻¹ s⁻¹.

By Kd is commonly meant a measure of binding affinity in units of concentration. Read a high Kd as weaker binding. As usually defined, the koff is a measure of how fast the partners let go of each other. Usually kon stands for the rate constant with which the complex forms. Higher therefore signals faster complex formation.
